In assay [1] the target is human IGF1R, endogenous, on the surface of breast cancer cell lines (MCF-7, JIMT-1, BT474) (human) (UniProt P08069). Nature of the assay: FACS on BT474 cells (FL1-H), anti-human FITC; same table: Untreated 1.8, 2nd Ab only 1.93.
Assay [2] shares this target. Nature of the assay: FACS on MCF-7 cells (FL1-H), anti-human FITC; same table: Untreated 2.51, 2nd Ab only 4.53.
For assay [3] the target is unchanged. The assay is described as follows: FACS on JIMT-1 cells (FL1-H), anti-human FITC; same table: Untreated 1.36, 2nd Ab only 1.89.

IMC-A12 (antibody), sequence (VH): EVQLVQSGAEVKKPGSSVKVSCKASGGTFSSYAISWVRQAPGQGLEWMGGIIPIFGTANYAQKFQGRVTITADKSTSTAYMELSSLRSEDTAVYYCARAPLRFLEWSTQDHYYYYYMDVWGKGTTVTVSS
IMC-A12 (antibody), sequence (VL): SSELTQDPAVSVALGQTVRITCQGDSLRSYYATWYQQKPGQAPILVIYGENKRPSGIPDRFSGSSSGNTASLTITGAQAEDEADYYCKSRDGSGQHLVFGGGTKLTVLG

For the substance IMC-A12 (antibody), the MFI in assay [1] came out at 18.3; in assay [2], 40.1; in assay [3], 23.

Values taken from patent US20220348665A1.
